Measurements reported in paper PMC2756588.

T1: Abp1, P15891
T1 sequence (P15891 535-592, looked up): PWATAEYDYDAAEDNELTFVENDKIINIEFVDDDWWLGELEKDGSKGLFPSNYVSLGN

T2: Fus1, P11710
T2 sequence (P11710 432-512, looked up): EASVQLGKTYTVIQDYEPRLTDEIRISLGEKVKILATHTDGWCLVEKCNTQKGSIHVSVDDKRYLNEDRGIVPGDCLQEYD

T3: Sla1-2, P32790
T3 sequence (P32790 60-140, looked up): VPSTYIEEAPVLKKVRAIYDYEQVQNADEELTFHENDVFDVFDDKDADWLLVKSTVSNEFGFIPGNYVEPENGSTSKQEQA

T4: Bzz1-1, P38822
T4 sequence (P38822 478-572, looked up): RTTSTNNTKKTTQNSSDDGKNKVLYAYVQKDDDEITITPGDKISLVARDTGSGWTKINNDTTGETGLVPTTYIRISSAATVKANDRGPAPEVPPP

T5: Boi2, P39969
T5 sequence (P39969 32-116, looked up): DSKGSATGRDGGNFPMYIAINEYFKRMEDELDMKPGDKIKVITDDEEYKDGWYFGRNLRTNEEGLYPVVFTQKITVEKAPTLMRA

T6: Myo5, Q04439
T6 sequence (Q04439 1072-1160, looked up): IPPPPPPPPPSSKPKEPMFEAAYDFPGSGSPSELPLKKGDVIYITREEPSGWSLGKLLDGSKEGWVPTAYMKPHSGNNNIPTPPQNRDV

T7: Lsb4, P32793
T7 sequence (P32793 402-468, looked up): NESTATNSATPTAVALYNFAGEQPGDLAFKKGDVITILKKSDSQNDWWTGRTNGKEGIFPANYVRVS

T8: Cdc25, P04821
T8 sequence (P04821 50-136, looked up): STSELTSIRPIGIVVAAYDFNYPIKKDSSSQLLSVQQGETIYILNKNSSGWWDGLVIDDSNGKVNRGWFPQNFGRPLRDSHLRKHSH

T9: Bud14, P27637
T9 sequence (P27637 247-328, looked up): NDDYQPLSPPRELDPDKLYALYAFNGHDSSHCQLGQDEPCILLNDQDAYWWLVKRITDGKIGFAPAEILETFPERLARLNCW

T10: Hof1, Q05080
T10 sequence (Q05080 590-669, looked up): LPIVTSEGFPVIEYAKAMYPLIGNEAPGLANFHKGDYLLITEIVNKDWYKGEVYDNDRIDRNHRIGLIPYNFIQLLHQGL

T11: Bzz1-2, P38822
T11 sequence (P38822 568-633, looked up): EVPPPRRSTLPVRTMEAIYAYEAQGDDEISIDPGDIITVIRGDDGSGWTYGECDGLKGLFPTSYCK

T12: Nbp2, Q12163
T12 sequence (Q12163 103-180, looked up): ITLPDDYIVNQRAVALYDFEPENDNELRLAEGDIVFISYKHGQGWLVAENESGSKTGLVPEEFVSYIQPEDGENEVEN

T13: Pex13, P80667
T13 sequence (P80667 295-386, looked up): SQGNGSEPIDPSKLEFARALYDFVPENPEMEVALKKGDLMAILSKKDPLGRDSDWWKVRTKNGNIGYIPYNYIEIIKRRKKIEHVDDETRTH

T14: Bbc1, P47068
T14 sequence (P47068 1-78, looked up): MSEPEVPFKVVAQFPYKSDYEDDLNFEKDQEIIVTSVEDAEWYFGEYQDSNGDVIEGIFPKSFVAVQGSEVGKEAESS

T15: Sla1-3, P32790
T15 sequence (P32790 344-424, looked up): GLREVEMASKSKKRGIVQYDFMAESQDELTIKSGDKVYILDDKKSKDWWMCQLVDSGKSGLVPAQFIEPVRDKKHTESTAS

T16: Boi1, P38041
T16 sequence (P38041 1-86, looked up): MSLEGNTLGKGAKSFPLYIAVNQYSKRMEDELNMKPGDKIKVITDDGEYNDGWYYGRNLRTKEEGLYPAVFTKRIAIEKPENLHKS

T17: Hse1, P38753
T17 sequence (P38753 208-285, looked up): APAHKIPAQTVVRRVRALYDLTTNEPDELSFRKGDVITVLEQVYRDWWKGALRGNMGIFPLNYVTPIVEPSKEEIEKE

T18: Lsb1, P53281
T18 sequence (P53281 45-122, looked up): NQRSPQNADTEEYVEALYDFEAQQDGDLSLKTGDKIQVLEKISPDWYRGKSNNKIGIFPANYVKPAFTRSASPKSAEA

T19: Cyk3, Q07533
T19 sequence (Q07533 1-83, looked up): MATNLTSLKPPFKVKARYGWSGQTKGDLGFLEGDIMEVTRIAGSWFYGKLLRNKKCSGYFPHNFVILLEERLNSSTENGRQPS

T20: Pin3, Q06449
T20 sequence (Q06449 53-122, looked up): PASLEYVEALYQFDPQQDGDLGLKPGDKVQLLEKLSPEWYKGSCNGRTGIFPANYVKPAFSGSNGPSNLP

T21: Lsb3, P43603
T21 sequence (P43603 385-451, looked up): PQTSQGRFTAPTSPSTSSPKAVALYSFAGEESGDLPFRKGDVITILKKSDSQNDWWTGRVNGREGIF


Legend:
Assay in all cases: SPOT array
Abp1, P15891 = target: T1, Abp1, P15891; conditions: median of control spots 935
GST = conditions: median of control spots 978
Bem1-2, P29366 = conditions: median of control spots 4347
Fus1, P11710 = target: T2, Fus1, P11710; conditions: median of control spots 1200
Sla1-2, P32790 = target: T3, Sla1-2, P32790; conditions: median of control spots 712
Bzz1-1, P38822 = target: T4, Bzz1-1, P38822; conditions: median of control spots 4446
Boi2, P39969 = target: T5, Boi2, P39969; conditions: median of control spots 1161
Myo5, Q04439 = target: T6, Myo5, Q04439; conditions: median of control spots 471
Lsb4, P32793 = target: T7, Lsb4, P32793; conditions: median of control spots 397
Cdc25, P04821 = target: T8, Cdc25, P04821; conditions: median of control spots 969
Bud14, P27637 = target: T9, Bud14, P27637; conditions: median of control spots 956
Hof1, Q05080 = target: T10, Hof1, Q05080; conditions: median of control spots 4086
Bzz1-2, P38822 = target: T11, Bzz1-2, P38822; conditions: median of control spots 4538
Sho1, P40073 = conditions: median of control spots 1148
Nbp2, Q12163 = target: T12, Nbp2, Q12163; conditions: median of control spots 357
Pex13, P80667 = target: T13, Pex13, P80667; conditions: median of control spots 1341
Bbc1, P47068 = target: T14, Bbc1, P47068; conditions: median of control spots 796
Sla1-3, P32790 = target: T15, Sla1-3, P32790; conditions: median of control spots 5475
Bem1-1, P29366 = conditions: median of control spots 4282
Rvs167, P39743 = conditions: median of control spots 2707
Boi1, P38041 = target: T16, Boi1, P38041; conditions: median of control spots 1162
Myo3, P36006 = conditions: median of control spots 468
Hse1, P38753 = target: T17, Hse1, P38753; conditions: median of control spots 1727
Lsb1, P53281 = target: T18, Lsb1, P53281; conditions: median of control spots 388
Cyk3, Q07533 = target: T19, Cyk3, Q07533; conditions: median of control spots 1451
Pin3, Q06449 = target: T20, Pin3, Q06449; conditions: median of control spots 2171
Lsb3, P43603 = target: T21, Lsb3, P43603; conditions: median of control spots 406

Chain of Rvs167, P39743 (P39743 419-482): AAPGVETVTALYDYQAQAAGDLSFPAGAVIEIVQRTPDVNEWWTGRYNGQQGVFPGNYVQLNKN
Chain of Bem1-2, P29366 (P29366 139-227): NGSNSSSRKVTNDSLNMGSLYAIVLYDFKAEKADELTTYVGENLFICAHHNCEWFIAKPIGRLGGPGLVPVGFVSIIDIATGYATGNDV
Chain of Sho1, P40073 (P40073 287-367): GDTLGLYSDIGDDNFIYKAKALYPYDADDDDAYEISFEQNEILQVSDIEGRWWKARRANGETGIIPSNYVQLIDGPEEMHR
Chain of Bem1-1, P29366 (P29366 55-141): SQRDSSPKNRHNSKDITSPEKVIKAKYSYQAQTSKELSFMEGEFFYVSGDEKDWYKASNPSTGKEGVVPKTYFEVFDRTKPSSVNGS

Binder	SPOT intensity (Abp1, P15891)	SPOT intensity (GST)	SPOT intensity (Bem1-2, P29366)	SPOT intensity (Fus1, P11710)	SPOT intensity (Sla1-2, P32790)	SPOT intensity (Bzz1-1, P38822)	SPOT intensity (Boi2, P39969)	SPOT intensity (Myo5, Q04439)	SPOT intensity (Lsb4, P32793)	SPOT intensity (Cdc25, P04821)	SPOT intensity (Bud14, P27637)	SPOT intensity (Hof1, Q05080)	SPOT intensity (Bzz1-2, P38822)	SPOT intensity (Sho1, P40073)	SPOT intensity (Nbp2, Q12163)	SPOT intensity (Pex13, P80667)	SPOT intensity (Bbc1, P47068)	SPOT intensity (Sla1-3, P32790)	SPOT intensity (Bem1-1, P29366)	SPOT intensity (Rvs167, P39743)	also measured
WTQRRGPLVVYAEDN	0	0	3	2	0	0	0	0	1	1	0	3	0	1	0	10	0	18	0	0	SPOT intensity (Boi1, P38041): 1; SPOT intensity (Myo3, P36006): 0; SPOT intensity (Hse1, P38753): 1; SPOT intensity (Lsb1, P53281): 0; SPOT intensity (Cyk3, Q07533): 0; SPOT intensity (Pin3, Q06449): 32; SPOT intensity (Lsb3, P43603): 0
RVTRKRPREPKSTND	167	2	0	34	2	0	2	3	10	28	9	3	11	173	40	0	217	47	2	0	SPOT intensity (Boi1, P38041): 10; SPOT intensity (Myo3, P36006): 19; SPOT intensity (Hse1, P38753): 12; SPOT intensity (Lsb1, P53281): 9; SPOT intensity (Cyk3, Q07533): 4; SPOT intensity (Pin3, Q06449): 3; SPOT intensity (Lsb3, P43603): 5

Now from value to binder, other results behind:

SPOT intensity (Abp1, P15891)	SPOT intensity (GST)	SPOT intensity (Bem1-2, P29366)	SPOT intensity (Fus1, P11710)	SPOT intensity (Sla1-2, P32790)	SPOT intensity (Bzz1-1, P38822)	SPOT intensity (Boi2, P39969)	SPOT intensity (Myo5, Q04439)	SPOT intensity (Lsb4, P32793)	SPOT intensity (Cdc25, P04821)	SPOT intensity (Bud14, P27637)	SPOT intensity (Hof1, Q05080)	SPOT intensity (Bzz1-2, P38822)	SPOT intensity (Sho1, P40073)	SPOT intensity (Nbp2, Q12163)	SPOT intensity (Pex13, P80667)	SPOT intensity (Bbc1, P47068)	SPOT intensity (Sla1-3, P32790)	SPOT intensity (Bem1-1, P29366)	SPOT intensity (Rvs167, P39743)	Binder	also measured
105	3	3	21	4	1	1	11	3	12	5	0	0	47	0	30	13	9	0	0	KIRRSSLMIPNPQQF	SPOT intensity (Boi1, P38041): 2; SPOT intensity (Myo3, P36006): 35; SPOT intensity (Hse1, P38753): 1; SPOT intensity (Lsb1, P53281): 12; SPOT intensity (Cyk3, Q07533): 2; SPOT intensity (Pin3, Q06449): 142; SPOT intensity (Lsb3, P43603): 14
259	0	800	13	0	52	0	4	26	43	10	6	522	90	219	27	68	155	0	4	FIRKRAPTPPAPSRS	SPOT intensity (Boi1, P38041): 3; SPOT intensity (Myo3, P36006): 35; SPOT intensity (Hse1, P38753): 76; SPOT intensity (Lsb1, P53281): 1190; SPOT intensity (Cyk3, Q07533): 2; SPOT intensity (Pin3, Q06449): 26; SPOT intensity (Lsb3, P43603): 18
